The values that follow are results of earlier work, collected in PMC11173308.

pKd: −log10 of the molar value.

For orientation: pKd means the negative decadic logarithm of the Kd, by convention in mol/L.

This data set concerns the target calmodulin (UniProt P0DP23).

Turning to arrestin-2 (from UniProt P17870), the pKd is 5.15.
